Data: patent US20110256172A1

Target: Bacillus anthracis protective antigen (PA83, List Biological Laboratories) (Bacillus anthracis) (UniProt P13423)
Experiment: cell-based or functional assay

Sequence of UniProt P13423 (P13423 30-764): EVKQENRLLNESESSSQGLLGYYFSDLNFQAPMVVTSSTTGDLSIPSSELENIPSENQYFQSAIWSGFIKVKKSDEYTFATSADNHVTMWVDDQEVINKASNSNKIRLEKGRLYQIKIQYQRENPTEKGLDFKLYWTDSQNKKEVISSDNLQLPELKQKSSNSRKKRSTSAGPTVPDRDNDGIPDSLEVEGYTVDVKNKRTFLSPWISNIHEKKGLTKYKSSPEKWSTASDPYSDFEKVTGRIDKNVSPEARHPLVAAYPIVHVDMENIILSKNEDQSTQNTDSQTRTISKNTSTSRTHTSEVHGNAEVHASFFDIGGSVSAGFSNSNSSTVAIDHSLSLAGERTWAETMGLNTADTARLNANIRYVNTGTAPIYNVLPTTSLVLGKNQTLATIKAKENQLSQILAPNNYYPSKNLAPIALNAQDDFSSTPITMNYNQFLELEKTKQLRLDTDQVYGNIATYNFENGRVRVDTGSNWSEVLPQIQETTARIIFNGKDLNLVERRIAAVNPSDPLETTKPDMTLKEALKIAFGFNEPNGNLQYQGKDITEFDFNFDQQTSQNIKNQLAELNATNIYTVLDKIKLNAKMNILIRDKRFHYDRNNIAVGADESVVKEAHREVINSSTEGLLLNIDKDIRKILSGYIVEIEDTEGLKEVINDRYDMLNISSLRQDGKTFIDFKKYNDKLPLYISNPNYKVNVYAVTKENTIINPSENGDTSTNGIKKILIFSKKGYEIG

Row | Substance | peak neutralization titer (TNA) (fold over the control PA antiserum)
1 | Sera of the three rabbits immunized with MAP304 (four copies of P30-PA 304-319) | 23
2 | Sera of the three rabbits immunized with MAP305 (four copies of P30-PA 305-319) | 19
